We go through 18 molecules from patent US20090130105A1 (Biogen, published 2009).

This experiment concerns the target T1, human IGF-1R(1-903)-Fc (human, UniProt P08069 31-933).
T1 construct: also called hIGF-1R-Fc; SDWT; not shown: human IgG1 Fc, C-terminal tag
As to the kind of experiment: biolayer interferometry (Octet), IGF-1R Fc on Protein A sensors, scFv culture supernatant. Further details: unit not given here. An excerpt:
Individual transformed colonies were picked into deep-well 96 well dishes and processed for screening as described above. […] For off-rate analyses IGF-1R Fc was immobilized onto the surface of Protein A biosensors. […] ScFvs were allowed to bind to immobilized IGF-1R Fc for 300-seconds. Off-rate was subsequently assayed for 600 seconds.

T1 sequence (P08069 31-933): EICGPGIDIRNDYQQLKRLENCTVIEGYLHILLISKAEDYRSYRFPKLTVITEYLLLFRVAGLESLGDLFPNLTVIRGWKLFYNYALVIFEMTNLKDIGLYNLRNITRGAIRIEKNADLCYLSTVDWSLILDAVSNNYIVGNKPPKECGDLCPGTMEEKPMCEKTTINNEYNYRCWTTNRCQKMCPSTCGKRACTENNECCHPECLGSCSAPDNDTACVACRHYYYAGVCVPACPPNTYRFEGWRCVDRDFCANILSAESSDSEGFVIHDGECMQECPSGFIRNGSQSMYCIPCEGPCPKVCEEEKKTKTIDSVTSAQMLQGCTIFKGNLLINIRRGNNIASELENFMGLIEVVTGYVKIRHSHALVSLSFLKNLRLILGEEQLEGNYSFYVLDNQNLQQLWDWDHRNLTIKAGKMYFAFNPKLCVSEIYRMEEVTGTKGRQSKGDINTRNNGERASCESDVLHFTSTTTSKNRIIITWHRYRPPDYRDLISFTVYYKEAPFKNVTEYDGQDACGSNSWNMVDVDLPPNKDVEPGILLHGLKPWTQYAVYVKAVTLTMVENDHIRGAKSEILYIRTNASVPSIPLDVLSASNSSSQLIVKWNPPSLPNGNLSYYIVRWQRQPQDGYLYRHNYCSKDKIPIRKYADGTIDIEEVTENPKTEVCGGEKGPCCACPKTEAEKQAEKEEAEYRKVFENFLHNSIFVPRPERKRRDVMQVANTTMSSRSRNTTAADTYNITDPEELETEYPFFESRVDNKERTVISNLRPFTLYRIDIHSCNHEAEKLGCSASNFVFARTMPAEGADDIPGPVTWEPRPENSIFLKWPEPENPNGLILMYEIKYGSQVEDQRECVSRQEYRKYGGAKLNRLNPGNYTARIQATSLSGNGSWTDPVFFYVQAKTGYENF

B1: conventional C06 (VL/GS3/VH) scFv (pXWU092) (scFv)
scFv: DIQMTQSPLSLSASVGDRVTITCQASRDIRNYLNWYQQKPGKAPKLLIYDASSLQTGVPSRFGGSGSGTDFSFTIGSLQPEDIATYYCQQFDSLPHTFGQGTKLEIKGGGGSGGGGSGGGGSEVQLLESGGGLVQPGGSLRLSCAASGFTFSIYRMQWVRQAPGKGLEWVSGISPSGGTTWYADSVKGRFTISRDNSKNTLYLQMNSLRAEDTAVYYCARWSGGSGYAFDIWGQGTMVTVSS
notes: also called WT C06 scFv
As to B1, the “Kd (1/sec), off-rate as tabulated (XWU092 = 1.00)” value (shortened to “Kd (1/sec), off-rate as tabulated”) came out at 1.

B2: MJF045, stabilized C06 (I83E) scFv (scFv)
scFv: DIQMTQSPLSLSASVGDRVTITCQASRDIRNYLNWYQQKPGKAPKLLIYDASSLQTGVPSRFGGSGSGTDFSFTIGSLQPEDEATYYCQQFDSLPHTFGQGTKLEIKGGGGSGGGGSGGGGSEVQLLESGGGLVQPGGSLRLSCAASGFTFSIYRMQWVRQAPGKGLEWVSGISPSGGTTWYADSVKGRFTISRDNSKNTLYLQMNSLRAEDTAVYYCARWSGGSGYAFDIWGQGTMVTVSS
notes: Variant of pXWU092 with VL I83E (Kabat); also called C06 VL I83E scFv
For B2, the “Kd (1/sec), off-rate as tabulated” value came out at 1.47.

B3: MJF018, C06 (VL/GS3/VH) scFv with VL V15N (scFv)
scFv: DIQMTQSPLSLSASNGDRVTITCQASRDIRNYLNWYQQKPGKAPKLLIYDASSLQTGVPSRFGGSGSGTDFSFTIGSLQPEDIATYYCQQFDSLPHTFGQGTKLEIKGGGGSGGGGSGGGGSEVQLLESGGGLVQPGGSLRLSCAASGFTFSIYRMQWVRQAPGKGLEWVSGISPSGGTTWYADSVKGRFTISRDNSKNTLYLQMNSLRAEDTAVYYCARWSGGSGYAFDIWGQGTMVTVSSDDDKSFLEQKLISEEDLNSAVDHHHHHH
notes: Kabat positions
Turning to B3, the “Kd (1/sec), off-rate as tabulated” value came to 1.16.

B4: MJF025, C06 (VL/GS3/VH) scFv with VL V15P (scFv)
scFv: DIQMTQSPLSLSASPGDRVTITCQASRDIRNYLNWYQQKPGKAPKLLIYDASSLQTGVPSRFGGSGSGTDFSFTIGSLQPEDIATYYCQQFDSLPHTFGQGTKLEIKGGGGSGGGGSGGGGSEVQLLESGGGLVQPGGSLRLSCAASGFTFSIYRMQWVRQAPGKGLEWVSGISPSGGTTWYADSVKGRFTISRDNSKNTLYLQMNSLRAEDTAVYYCARWSGGSGYAFDIWGQGTMVTVSSDDDKSFLEQKLISEEDLNSAVDHHHHHH
notes: Kabat positions
In the case of B4, the “Kd (1/sec), off-rate as tabulated” value amounted to 1.18.

B5: MJF020, C06 (VL/GS3/VH) scFv with VL V15E (scFv)
scFv: DIQMTQSPLSLSASEGDRVTITCQASRDIRNYLNWYQQKPGKAPKLLIYDASSLQTGVPSRFGGSGSGTDFSFTIGSLQPEDIATYYCQQFDSLPHTFGQGTKLEIKGGGGSGGGGSGGGGSEVQLLESGGGLVQPGGSLRLSCAASGFTFSIYRMQWVRQAPGKGLEWVSGISPSGGTTWYADSVKGRFTISRDNSKNTLYLQMNSLRAEDTAVYYCARWSGGSGYAFDIWGQGTMVTVSSDDDKSFLEQKLISEEDLNSAVDHHHHHH
notes: Kabat positions
For B5, the “Kd (1/sec), off-rate as tabulated” value was determined as 0.76.

B6: MJF015, C06 (VL/GS3/VH) scFv with VH W47F (scFv, name in Kabat numbering)
scFv: DIQMTQSPLSLSASVGDRVTITCQASRDIRNYLNWYQQKPGKAPKLLIYDASSLQTGVPSRFGGSGSGTDFSFTIGSLQPEDIATYYCQQFDSLPHTFGQGTKLEIKGGGGSGGGGSGGGGSEVQLLESGGGLVQPGGSLRLSCAASGFTFSIYRMQWVRQAPGKGLEFVSGISPSGGTTWYADSVKGRFTISRDNSKNTLYLQMNSLRAEDTAVYYCARWSGGSGYAFDIWGQGTMVTVSSDDDKSFLEQKLISEEDLNSAVDHHHHHH
notes: Kabat positions
With B6, the “Kd (1/sec), off-rate as tabulated” value worked out at 1.37.

B7: MJF024, C06 (VL/GS3/VH) scFv with VL V15A (scFv)
scFv: DIQMTQSPLSLSASAGDRVTITCQASRDIRNYLNWYQQKPGKAPKLLIYDASSLQTGVPSRFGGSGSGTDFSFTIGSLQPEDIATYYCQQFDSLPHTFGQGTKLEIKGGGGSGGGGSGGGGSEVQLLESGGGLVQPGGSLRLSCAASGFTFSIYRMQWVRQAPGKGLEWVSGISPSGGTTWYADSVKGRFTISRDNSKNTLYLQMNSLRAEDTAVYYCARWSGGSGYAFDIWGQGTMVTVSSDDDKSFLEQKLISEEDLNSAVDHHHHHH
notes: Kabat positions
As for B7, the “Kd (1/sec), off-rate as tabulated” value was 0.89.

B8: MJF033, C06 (VL/GS3/VH) scFv with VL T20R, R30N; VH S21E (scFv, name in Kabat numbering)
scFv: DIQMTQSPLSLSASVGDRVRITCQASRDINNYLNWYQQKPGKAPKLLIYDASSLQTGVPSRFGGSGSGTDFSFTIGSLQPEDIATYYCQQFDSLPHTFGQGTKLEIKGGGGSGGGGSGGGGSEVQLLESGGGLVQPGGSLRLECAASGFTFSIYRMQWVRQAPGKGLEWVSGISPSGGTTWYADSVKGRFTISRDNSKNTLYLQMNSLRAEDTAVYYCARWSGGSGYAFDIWGQGTMVTVSSDDDKSFLEQKLISEEDLNSAVDHHHHHH
notes: Kabat positions
For the molecule B8, the “Kd (1/sec), off-rate as tabulated” value was found to be 0.78.

B9: MJF014, C06 (VL/GS3/VH) scFv with VL M4L (scFv)
scFv: DIQLTQSPLSLSASVGDRVTITCQASRDIRNYLNWYQQKPGKAPKLLIYDASSLQTGVPSRFGGSGSGTDFSFTIGSLQPEDIATYYCQQFDSLPHTFGQGTKLEIKGGGGSGGGGSGGGGSEVQLLESGGGLVQPGGSLRLSCAASGFTFSIYRMQWVRQAPGKGLEWVSGISPSGGTTWYADSVKGRFTISRDNSKNTLYLQMNSLRAEDTAVYYCARWSGGSGYAFDIWGQGTMVTVSSDDDKSFLEQKLISEEDLNSAVDHHHHHH
notes: Kabat positions
In the case of B9, the “Kd (1/sec), off-rate as tabulated” value was 0.86.

B10: MJF021, C06 (VL/GS3/VH) scFv with VL V15I (scFv)
scFv: DIQMTQSPLSLSASIGDRVTITCQASRDIRNYLNWYQQKPGKAPKLLIYDASSLQTGVPSRFGGSGSGTDFSFTIGSLQPEDIATYYCQQFDSLPHTFGQGTKLEIKGGGGSGGGGSGGGGSEVQLLESGGGLVQPGGSLRLSCAASGFTFSIYRMQWVRQAPGKGLEWVSGISPSGGTTWYADSVKGRFTISRDNSKNTLYLQMNSLRAEDTAVYYCARWSGGSGYAFDIWGQGTMVTVSSDDDKSFLEQKLISEEDLNSAVDHHHHHH
notes: Kabat positions
As to B10, the “Kd (1/sec), off-rate as tabulated” value amounted to 0.81.

B11: MJF022, C06 (VL/GS3/VH) scFv with VL V15R (scFv)
scFv: DIQMTQSPLSLSASRGDRVTITCQASRDIRNYLNWYQQKPGKAPKLLIYDASSLQTGVPSRFGGSGSGTDFSFTIGSLQPEDIATYYCQQFDSLPHTFGQGTKLEIKGGGGSGGGGSGGGGSEVQLLESGGGLVQPGGSLRLSCAASGFTFSIYRMQWVRQAPGKGLEWVSGISPSGGTTWYADSVKGRFTISRDNSKNTLYLQMNSLRAEDTAVYYCARWSGGSGYAFDIWGQGTMVTVSSDDDKSFLEQKLISEEDLNSAVDHHHHHH
notes: Kabat positions
For B11, the “Kd (1/sec), off-rate as tabulated” value is 0.76.

B12: MJF031, C06 (VL/GS3/VH) scFv with VL R30N (scFv)
scFv: DIQMTQSPLSLSASVGDRVTITCQASRDINNYLNWYQQKPGKAPKLLIYDASSLQTGVPSRFGGSGSGTDFSFTIGSLQPEDIATYYCQQFDSLPHTFGQGTKLEIKGGGGSGGGGSGGGGSEVQLLESGGGLVQPGGSLRLSCAASGFTFSIYRMQWVRQAPGKGLEWVSGISPSGGTTWYADSVKGRFTISRDNSKNTLYLQMNSLRAEDTAVYYCARWSGGSGYAFDIWGQGTMVTVSSDDDKSFLEQKLISEEDLNSAVDHHHHHH
notes: Kabat positions
With B12, the “Kd (1/sec), off-rate as tabulated” value amounted to 0.59.

B13: MJF017, C06 (VL/GS3/VH) scFv with VL T74S (scFv)
scFv: DIQMTQSPLSLSASVGDRVTITCQASRDIRNYLNWYQQKPGKAPKLLIYDASSLQTGVPSRFGGSGSGTDFSFSIGSLQPEDIATYYCQQFDSLPHTFGQGTKLEIKGGGGSGGGGSGGGGSEVQLLESGGGLVQPGGSLRLSCAASGFTFSIYRMQWVRQAPGKGLEWVSGISPSGGTTWYADSVKGRFTISRDNSKNTLYLQMNSLRAEDTAVYYCARWSGGSGYAFDIWGQGTMVTVSSDDDKSFLEQKLISEEDLNSAVDHHHHHH
notes: Kabat positions
Turning to B13, the “Kd (1/sec), off-rate as tabulated” value came out at 1.02.

B14: MJF029, C06 (VL/GS3/VH) scFv with VL T20R, R30Y (scFv)
scFv: DIQMTQSPLSLSASVGDRVRITCQASRDIYNYLNWYQQKPGKAPKLLIYDASSLQTGVPSRFGGSGSGTDFSFTIGSLQPEDIATYYCQQFDSLPHTFGQGTKLEIKGGGGSGGGGSGGGGSEVQLLESGGGLVQPGGSLRLSCAASGFTFSIYRMQWVRQAPGKGLEWVSGISPSGGTTWYADSVKGRFTISRDNSKNTLYLQMNSLRAEDTAVYYCARWSGGSGYAFDIWGQGTMVTVSSDDDKSFLEQKLISEEDLNSAVDHHHHHH
notes: Kabat positions
On to B14, for which the “Kd (1/sec), off-rate as tabulated” value came to 0.68.

B15: MJF023, C06 (VL/GS3/VH) scFv with VL L11G, V15N (scFv)
scFv: DIQMTQSPLSGSASNGDRVTITCQASRDIRNYLNWYQQKPGKAPKLLIYDASSLQTGVPSRFGGSGSGTDFSFTIGSLQPEDIATYYCQQFDSLPHTFGQGTKLEIKGGGGSGGGGSGGGGSEVQLLESGGGLVQPGGSLRLSCAASGFTFSIYRMQWVRQAPGKGLEWVSGISPSGGTTWYADSVKGRFTISRDNSKNTLYLQMNSLRAEDTAVYYCARWSGGSGYAFDIWGQGTMVTVSSDDDKSFLEQKLISEEDLNSAVDHHHHHH
notes: Kabat positions
In the case of B15, the “Kd (1/sec), off-rate as tabulated” value was determined as 0.68.

B16: MJF026, C06 (VL/GS3/VH) scFv with VL V15S; VH T110V (scFv, name in Kabat numbering)
scFv: DIQMTQSPLSLSASSGDRVTITCQASRDIRNYLNWYQQKPGKAPKLLIYDASSLQTGVPSRFGGSGSGTDFSFTIGSLQPEDIATYYCQQFDSLPHTFGQGTKLEIKGGGGSGGGGSGGGGSEVQLLESGGGLVQPGGSLRLSCAASGFTFSIYRMQWVRQAPGKGLEWVSGISPSGGTTWYADSVKGRFTISRDNSKNTLYLQMNSLRAEDTAVYYCARWSGGSGYAFDIWGQGTMVVVSSDDDKSFLEQKLISEEDLNSAVDHHHHHH
notes: Kabat positions
Regarding B16, the “Kd (1/sec), off-rate as tabulated” value came out at 0.99.

B17: MJF016, C06 (VL/GS3/VH) scFv with VL D70E (scFv)
scFv: DIQMTQSPLSLSASVGDRVTITCQASRDIRNYLNWYQQKPGKAPKLLIYDASSLQTGVPSRFGGSGSGTEFSFTIGSLQPEDIATYYCQQFDSLPHTFGQGTKLEIKGGGGSGGGGSGGGGSEVQLLESGGGLVQPGGSLRLSCAASGFTFSIYRMQWVRQAPGKGLEWVSGISPSGGTTWYADSVKGRFTISRDNSKNTLYLQMNSLRAEDTAVYYCARWSGGSGYAFDIWGQGTMVTVSSDDDKSFLEQKLISEEDLNSAVDHHHHHH
notes: Kabat positions
As to B17, the “Kd (1/sec), off-rate as tabulated” value was 1.03.

B18: MJF027, C06 (VL/GS3/VH) scFv with VL Q24K (scFv)
scFv: DIQMTQSPLSLSASVGDRVTITCKASRDIRNYLNWYQQKPGKAPKLLIYDASSLQTGVPSRFGGSGSGTDFSFTIGSLQPEDIATYYCQQFDSLPHTFGQGTKLEIKGGGGSGGGGSGGGGSEVQLLESGGGLVQPGGSLRLSCAASGFTFSIYRMQWVRQAPGKGLEWVSGISPSGGTTWYADSVKGRFTISRDNSKNTLYLQMNSLRAEDTAVYYCARWSGGSGYAFDIWGQGTMVTVSSDDDKSFLEQKLISEEDLNSAVDHHHHHH
notes: Kabat positions
Regarding B18, the “Kd (1/sec), off-rate as tabulated” value was found to be 1.12.
